What was measured:
[1] = system: DBP48-TetR (synthetic construct); test: cell_activity; details: E. coli YFP NOT gate, 1 mM IPTG
[2] = system: DBP57-TetR (synthetic construct); test: cell_activity; details: E. coli YFP NOT gate, 1 mM IPTG
[3] = system: biotinylated dsDNA oligo (designed DNA target); test: Clonal yeast surface display binding to biotinylated dsDNA oligo
Excerpt: For each set of designs, synthetic oligonucleotides (230 base pairs) encoding the 50-65-residue designed proteins were ordered in a single pool and cloned into a yeast surface-expression vector. Cells containing designs that bound each DNA target were enriched by several rounds of fluorescence-activated cell sorting (FACS) using fluorescently labeled target dsDNA oligos. The naive and sorted populations for each DNA target were deep sequenced, and the frequency of each design in the starting population and after each sort was determined. From this analysis, we identified 97 designs that were substantially enriched (>100×) in pools sorted with their intended dsDNA target compared to the naive library. […]
For yeast display characterization of individual designs, including competition assays, DNA sequences encoding the proteins of interest were purchased as Integrated DNA Technologies (IDT) E-Blocks™, transformed into yeast cells, and incubated in 96 well culture plates. […] For each individual sample, gating of the expression population was performed using the CytoFlow™ Gaussian Mixture Model and the ratio of SAPE channel intensity to FITC channel intensity (binding signal/expression signal) was calculated for all gated expression events of the sample.

[4] = system: 13 unique dsDNA targets; test: All-by-all yeast surface display screen of DBP design hits; type: binding
Protocol: And an all-by-all screen of DBP design hits to 13 unique dsDNA targets was performed (FIG. 4, table 2). […] To try to understand these observed binding preferences, each tested DNA sequence was threaded onto each design complex model at all possible base pair alignments, the alternative complex models were relaxed with Rosetta™, and the model with the most favorable Rosetta™ ΔΔG was selected.
Saccharomyces cerevisiae EBY100 strain cultures were grown in C-Trp-Ura medium supplemented with 2% (w/v) glucose. For induction of expression, yeast cells were centrifuged at 6,000 g for 1 min and resuspended in SGCAA medium supplemented with 0.2% (w/v) glucose at the cell density of 1×10^7 cells per ml and induced at 30° C. for 16-24 h. Cells were washed with PBSF (PBS with 1% (w/v) BSA) and labeled with biotinylated targets using two labeling methods: with-avidity and without-avidity labeling. For the with-avidity method, the cells were incubated with biotinylated target, together with anti-c-Myc fluorescein isothiocyanate (FITC, Miltenyi Biotech) and streptavidin-phycoerythrin (SAPE, ThermoFisher). The concentration of SAPE in the with-avidity method was used at one-quarter of the concentration of the biotinylated targets. For the without-avidity method, the cells were first incubated with biotinylated targets, washed and secondarily labeled with SAPE and FITC.
(§1) For yeast display characterization of individual designs, including competition assays, DNA sequences encoding the proteins of interest were purchased as Integrated DNA Technologies (IDT) E-Blocks™, transformed into yeast cells, and incubated in 96 well culture plates. Labeling with biotinylated dsDNA targets and SAPE/FITC was performed in a 96 well plate format. For yeast display competition assays, labeling was performed without avidity using 1 μM biotinylated dsDNA duplex oligos and an excess of 8 μM non-biotinylated competitor dsDNA duplex oligos. […] Flow cytometry analysis was performed with an Attune NxT™ flow cytometer with autosampler. Flow cytometry data analysis was performed using custom python code and the CytoFlow™ python package. For each individual sample, gating of the expression population was performed using the CytoFlow™ Gaussian Mixture Model and the ratio of SAPE channel intensity to FITC channel intensity (binding signal/expression signal) was calculated for all gated expression events of the sample.

[5] = system: biotinylated target dsDNA with non-biotinylated competitor dsDNA; test: Yeast display competition assay with base-substituted competitor dsDNA; type: binding
Excerpt: We used a yeast display competition assay to characterize the DNA binding site specificity of a subset of the designs (FIG. 1A-E, left; FIG. 5). Addition of non-biotinylated competitor dsDNA to biotinylated target sequence reduced binding signal by flow cytometry (FIG. 1A-E, middle). […] For example, in DBP6 (FIG. 1A) R31 and R36 in the design model form bidentate hydrogen bonds with the guanines of base pair positions G12 and C9, respectively, while T32 forms a hydrogen bond with C10.
as §1

[6] = system: synTF-specific cis-regulatory elements (CRE) in HEK293T cells; test: Transcriptional activation by synTFs in HEK293T cells (ENGRAM); type: cell-based; details: DBP fused to GCN4 dimerization domain and VP64; HEK293T cells expressing PEmax; dependent on spacing between motifs
Excerpt: Next, we investigated whether the DBPs can be used as activators in mammalian cells. A set of synthetic transcription factors (synTFs) were created by fusing the GCN4 dimerization domain and the VP64 activation domain to the C-termini of DBPs 9, 35opt, 48, 57, and 60 which recognize 3 unique motifs. The dimerization domain allows the DBPs to recognize a palindromic target sequence consisting of two binding motifs, improving the binding affinity to the DNA sequence (FIG. 2C). We created synTF specific cis-regulatory elements (CRE) with 4 repeats spaced by 6 bp to drive the expression of downstream genes, and used the ENGRAM (43) recording technology to measure the activity of the synTFs in HEK293 cells. In ENGRAM, each CRE drives the expression of a uniquely barcoded pegRNA, which upon expression is recorded into the DNA TAPE at the HEK3 locus by prime-editor (PEmax); the activity of individual synTFs can be measured as the abundance of the barcode on the DNA TAPE (FIG. 2C). We first tested 3 different spacings-1 bp, 3 bp, and 5 bp-between the palindromic binding motifs to maximize the recorder activity. 3 synTF specific recorders and 1 TCF-LEF-recorder (negative control) were mixed with ratio 2:2:2:1 and co-transfected with synTFs into the HEK293T cells expressing PEmax. Cells were harvested and analyzed 2 days post-transfection. After analyzing the barcode abundance on the DNA TAPE, we observed 3-5 fold activation for DBP9/DBP35 and DBP57/DBP60 (FIG. 2D).
HEK293T cells expressing PEmax™ were cultured in DMEM High glucose (GIBCO), supplemented with 10% Fetal Bovine Serum (Rocky Mountain Biologicals) and 1% penicillin-streptomycin (GIBCO). Cells were grown with 5% CO2 at 37° C. 1×10^5 cells were seeded on a 48-well plate a day before transfection. Enhancer plasmid and binder plasmid were mixed with a ratio of 2:1. Enhancer variants and background control were mixed with a ratio of 2:2:2:1. A total of 300 ng of plasmid were transfected using Lipofectamine™ 3000 (ThermoFisher, L3000015), following the manufacturer's protocol. Cells were harvested 2 days post-transfection. Genomic DNA was extracted based on the protocol described earlier (43). Briefly, cells were lysed using freshly prepared lysis buffer (10 mM Tris-HCl, pH 7.5; 0.05% SDS; 25 µg/ml protease (ThermoFisher)) for each well. The genomic DNA mixture was incubated at 50° C. for 1 h, followed by an 80° C. enzyme inactivation step for 30 min. The DNA TAPE was amplified from the genomic DNA directly for next generation sequencing. Recorded information was extracted via custom analysis code. Each enhancer has a unique barcode representing its activity. Transcription activation was measured as the fold change in the barcode abundance relative to the negative control barcode. All measurements were performed in triplicates.

[7] = system: synthetic promoter containing the designed DBP binding sites controlling YFP; test: Transcriptional repression assay (NOT gate, YFP) in E. coli; type: cell-based, Escherichia coli; details: IPTG induction (1 mM), flow cytometry
Excerpt: We next tested the ability of the designed DBPs to function in cells to regulate transcription. We constructed candidate NOT gates (38) to assay transcriptional repression in Escherichia coli, where the input is a designed DBP under control of the IPTG-inducible PTac promoter and the output is yellow fluorescent protein (YFP) expression driven by a promoter incorporating each DBP's DNA binding site. […] To increase avidity and bulk, we fused the DBPs to the homodimerization domain of the TetR protein (39), using RFdiffusion (40) and ProteinMPNN sequence design to generate rigid linkers that orient the DBP domain of each dimer unit on a DNA target containing two palindromic binding sites. For DBPs 48, 69, and 57, we selected 96 TetR fusions for experimental characterization in the NOT gate circuit. Upon initial screening, we observed modest repression for several designs and selected two for further validation (one incorporating DBP48, the other DBP57) (FIG. 8). […]

**Q.** For “GGCGTCAGGTGGACGCAGATTGACAGCGTCAGGTGGACGCTTATAATGAGCACTTCC (double strand) [PDBP48 synthetic promoter]”, which activity (fold repression) [1] is on record?
**A.** 3.4

**Q.** With “TCTGGATAGTGTATCCAGATTGACATCTGGAAGTATATCCAGATAATGAGCACTTCC (double strand) [PDBP57 synthetic promoter]” as the molecule, how does the activity (fold repression) [2] read?
**A.** 8.1

B1: DBP35opt: optimized DBP35 combining R33N, K18V and P42Q; sequence matches Table 1 row SEQ ID NO: 50, DNA target B (protein)
chain: GFGRAVKEKRKELGLTQVEFAEKAGLSRRTIINIERGYIVPQKATKEKIAKALGTSVEELEQA
**Q.** For B1, which “Detectable binding down to (dsDNA concentration)” value [3] is on record?
**A.** ~150 pM

**Q.** What about the Off-target binding ([4]; yeast display screen against the 13 DNA targets, versus original DBP35) of the same molecule?
**A.** strongly decreased off-target binding

**Q.** And the “Number of base positions of specificity” value [5]?
**A.** 7 base positions

**Q.** What about the “Fold activation of synTFs measured as normalized barcode abundance in the DNA TAPE” value [6] of the same molecule?
**A.** 3-5 fold

B2: DBP57: designed DNA-binding protein, SEQ ID NO: 31, DNA target E (protein)
chain: MVLTPMERIGEFIKRARREAGLTQRELAELAGVGQSTVSRIEKGEKCSPELVEKILEALRKV
**Q.** For B2, which “Number of the 13 tested DNA target sequences preferentially bound” value ([4]; 1 μM dsDNA with avidity, including designed target sequence) is on record?
**A.** less than 3

**Q.** And the “Binding specificity versus design models” value ([4]; all-by-all screen with Rosetta-predicted motifs)?
**A.** bound with specificity closely consistent with the design models

**Q.** What about the “Binding to initial design target” value ([4]; yeast surface display, 1 μM dsDNA with avidity) of the same molecule?
**A.** bound strongly

**Q.** What about the “Binding to alternate target sequence” value ([4]; yeast surface display, 1 μM dsDNA with avidity, alternate target H (DBP90), D (DBP48), C (DBP57)) of the same molecule?
**A.** bound strongly

**Q.** What about the “Fold repression of YFP by single DBP domains and tandem linked DBP domains” value [7] of the same molecule?
**A.** not observed

**Q.** And the “Fold activation of synTFs measured as normalized barcode abundance in the DNA TAPE” value [6]?
**A.** 3-5 fold

Reference: US20250051407A1, “De novo designed sequence-specific DNA binding proteins” (University of Washington, priority 2023, published 2025)
